Experimental data from PMC7376557.

Target: SasC aggregation domain (S. aureus surface protein C), His-tagged (S. aureus strain N315)
Assay: SEC-MALS; FPLC-MALS (Wyatt Technology) of the purified His-tagged SasC aggregation domain; superpolymer of about 1,610 kDa against 41.5 kDa for the domain

Substance: SasC aggregation domain (S. aureus surface protein C), His-tagged (domain or fragment)
- stoichiometry N: > 35
